Experiment [1] concerns the target Leishmania major tubulin-binding cofactor A (Leishmania major Friedlin). The experiment in a line: MALDI-TOF mass spectrometry; sample that was used for crystallization (the approx. 27 kDa gel-filtration peak).
For experiment [2] the target is unchanged. The experiment in a line: SEC; calibrated Superdex 75 26/60 column, 50 mM Tris-HCl, 250 mM NaCl pH 7.5, no reducing agent.

The stoichiometry N is a count of units in the complex or per binding partner. Take “Leishmania major tubulin-binding cofactor A (natural protein)”: the stoichiometry N in experiment [1] and in experiment [2] was 2 throughout.

Source of the values: PMC4427162.
